The experiment concerns the target 4×SUMO2 linear fusion (C47A) with a single C-terminal cysteine labelled with Alexa488. Kind of experiment: fluorescence polarisation; unlabelled RNF4 titrated against 1 µM 4×SUMO-Alexa488; 50 mM Tris, 150 mM NaCl, 0.5 mM TCEP, pH 7.5; room temperature, 10 min before measuring FP. Background: Fluorescence polarisation rises when a labelled molecule tumbles more slowly, as on binding a larger partner.

The results in this text go back to paper PMC7393505.

What is called Kd is the constant that tells how readily two partners part at equilibrium. Read a low Kd as higher affinity.

On to “RNF4 ∆Basic, full-length (basic charge removed from the arginine-rich motif) (from UniProt O88846 1-194) (enzyme)”, for which the Kd turned out to be 2600 nM.
